# Data taken from US20240277831A1.
# Columns and labels:
# [1] = molecular target: Monomeric SARS-CoV-2 RBD (SARS-CoV-2) (UniProt P0DTC2)
# [2] = molecular target: RBD-12GS-I53-50A trimeric component (SARS-CoV-2)
# [3] = molecular target: RBD-16GS-I53-50A trimeric component (SARS-CoV-2)
# [4] = molecular target: RBD-8GS-I53-50A trimeric component (SARS-CoV-2)
substance,measurement,setting,value
CR3022 Fab,Kd,[1],45 nM
same,koff,[1],0.009 s⁻¹
same,kon,[1],200000 M⁻¹ s⁻¹
same,Kd,[2],42 nM
same,koff,[2],0.009 s⁻¹
same,kon,[2],200000 M⁻¹ s⁻¹
same,Kd,[3],56 nM
same,koff,[3],0.01 s⁻¹
same,kon,[3],200000 M⁻¹ s⁻¹
same,Kd,[4],57 nM
same,koff,[4],0.01 s⁻¹
same,kon,[4],200000 M⁻¹ s⁻¹
